Patent US20250313626A1 (HARBOUR BIOMED SHANGHAI, published 2025)
Where two headings read alike, the source gives them in different places. One block for each binder: values may come before it.

Tests used:
[1] = target: T1, human CD200R1 isoform a on CHOK1 cells (CHOK1/hCD200R1a) (human, UniProt Q8TD46 25-348); test: flow cytometry, CHOK1/hCD200R1a cells (FITC-Mean); table beside the curves
T1 construct: also called CHOK1/CD200R1a
T1 sequence: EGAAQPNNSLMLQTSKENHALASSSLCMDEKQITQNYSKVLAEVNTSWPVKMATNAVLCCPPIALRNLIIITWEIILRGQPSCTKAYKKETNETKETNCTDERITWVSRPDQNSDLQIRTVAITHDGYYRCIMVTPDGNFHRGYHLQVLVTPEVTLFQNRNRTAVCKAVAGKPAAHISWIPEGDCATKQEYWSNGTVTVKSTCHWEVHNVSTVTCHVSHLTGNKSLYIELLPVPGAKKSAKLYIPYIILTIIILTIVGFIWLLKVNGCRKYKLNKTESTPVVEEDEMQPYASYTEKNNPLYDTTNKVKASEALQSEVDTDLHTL
Protocol: (§1) This example is intended to investigate the in vitro binding activity of human anti-CD200R1 monoclonal antibodies to human/Cynomolgus macaques CD200R1a expressed on the surface of cells. The anti-CD200R1 antibodies were produced as described in Example 3.4 and the binding experiments at the cell level were performed using CHOK1/hCD200R1a and CHOK1-cynoCD200R1a.
(§2) Briefly, CHOK1/hCD200R1a cells and CHOK1-cynoCD200R1a cells were digested, and collected, and then were resuspended in PBS containing 2% BSA, respectively. The cell density was adjusted to 1×10⁶ cells/mL. The cells were seeded in a 96-well V-bottom plate (Corning, #3894) at 100 μL/well, followed by the addition of test antibodies and reference antibodies in a series diluted concentration, each at 100 μL/well. The cells were incubated away from light at 4° C. for 1 h. Thereafter, the cells in each well were rinsed twice with 100 μL of pre-cooled PBS containing 2% BSA, and centrifuged at 500 g at 4° C. for 5 min, and then the supernatant was discarded. 100 μL of fluorescent secondary antibody (Alexa Fluor 488-conjugated AffiniPure Goat Anti-Human IgG, Fcγ Fragment Specific, Jackson, #109-545-098, diluted in a 1:1000 ratio) was added in each well, and the plate was incubated away from light at 4° C. for 1 h. The cells in each well were rinsed twice with 100 μL of pre-cooled PBS containing 2% BSA, and centrifuged at 500 g at 4° C. for 5 min, and then the supernatant was discarded. Finally, the cells in each well were resuspended in 200 μL of pre-cooled PBS containing 2% BSA, and the fluorescence signal values were read using a BD CantoII flow cytometer.

[2] = target: T2, Cynomolgus macaques CD200R1 isoform a on CHOK1 cells (CHOK1/cynoCD200R1a) (Cynomolgus macaques); test: flow cytometry, CHOK1/cynoCD200R1a cells (APC-A Mean); table beside the curves
T2 chain: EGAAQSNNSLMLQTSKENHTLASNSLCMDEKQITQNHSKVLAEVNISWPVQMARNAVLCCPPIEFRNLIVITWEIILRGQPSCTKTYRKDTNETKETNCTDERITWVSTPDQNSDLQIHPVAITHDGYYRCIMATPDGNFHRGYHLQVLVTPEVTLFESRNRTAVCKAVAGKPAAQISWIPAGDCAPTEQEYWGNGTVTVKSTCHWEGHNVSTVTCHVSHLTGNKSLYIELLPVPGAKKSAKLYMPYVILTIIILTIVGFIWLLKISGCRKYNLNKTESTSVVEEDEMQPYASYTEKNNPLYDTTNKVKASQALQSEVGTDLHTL

[3] = target: T1, human CD200R1 isoform a on CHOK1 cells …; test: flow cytometry blocking assay: biotin-labelled human CD200 binding to CHOK1/hCD200R1a cells; y axis Inhibition %
Protocol: (§3) In brief, CHOK1/hCD200R1a cells were digested and resuspended in 2% BSA in PBS. […] The cells were placed at 4° C. and incubated for 1 hour in the dark. […] 100 μL/well of pre-cooled PBS containing 2% BSA was added to rinse the cells twice, centrifugation was performed at 500 g, 4° C. for 5 minutes, and the supernatant was discarded. Fluorescent secondary antibody (PE Streptavidin, BD, Cat #: 554061, 1:200) was added at 100 μL/well, and incubation was performed at 4° C. for 30 minutes in the dark. The cells were washed twice with 200 μL/well of pre-cooled PBS, and were centrifuged at 500 g, 4° C. for 5 minutes, and the supernatant was discarded. Finally, 200 μL/well of pre-cooled PBS was used to resuspend the cells, and the fluorescence signal values were read using ACEA Novocyte 3000 flow cytometer. IC50 values were calculated.

[4] = target: T1, human CD200R1 isoform a on CHOK1 cells …; test: flow cytometry, CHOK1/hCD200R1a cells (FITC-Mean); table beside the curves, head without unit, x axis Log [Ab] (nM)
[5] = target: T1, human CD200R1 isoform a on CHOK1 cells …; test: flow cytometry blocking assay: antibody titrated against biotin-labelled human CD200 binding to CHOK1/hCD200R1a cells; head prints EC50 without unit, x axis Log [Ab] (nM), y axis Inhibition %
Protocol: as §3

[6] = target: T3, CD200R1a on PathHunter Jurkat CD200R1a signaling cells (Eurofins DiscoverX, 93-1136C19) (human, UniProt Q8TD46 25-348); test: cell-based or functional assay
T3 sequence: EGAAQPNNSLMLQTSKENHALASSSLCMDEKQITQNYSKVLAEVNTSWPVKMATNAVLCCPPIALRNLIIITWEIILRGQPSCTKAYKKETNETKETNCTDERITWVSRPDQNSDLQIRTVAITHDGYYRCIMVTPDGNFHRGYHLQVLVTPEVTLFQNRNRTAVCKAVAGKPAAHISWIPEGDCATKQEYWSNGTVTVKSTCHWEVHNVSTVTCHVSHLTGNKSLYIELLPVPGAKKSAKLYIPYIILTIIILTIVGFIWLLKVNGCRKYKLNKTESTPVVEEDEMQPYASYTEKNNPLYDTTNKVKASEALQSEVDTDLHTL

Mouse CD200R1-His = target: T4, Mouse CD200R1-His (mouse, UniProt Q9ES57 26-238, limits assumed); test: BLI (Octet), antibody captured on anti-human Fc sensor
T4 sequence (looked up): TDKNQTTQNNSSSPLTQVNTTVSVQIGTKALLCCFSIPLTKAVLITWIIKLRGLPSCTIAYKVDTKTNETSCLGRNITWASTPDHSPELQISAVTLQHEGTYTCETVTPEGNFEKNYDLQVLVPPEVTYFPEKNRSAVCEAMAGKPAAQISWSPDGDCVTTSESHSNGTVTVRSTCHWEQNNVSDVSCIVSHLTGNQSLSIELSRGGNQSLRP
Protocol: To determine the binding affinities of the anti-CD200R1 antibodies to CD200R1a proteins of various species (mouse, human, Cynomolgus macaques), bio-layer interferometry (BLI) assays were carried out using an Octet® RED96e instrument. Antibodies were produced as described in Example 3.4 and diluted to 5 μg/mL using freshly prepared 1× kinetic buffer (10× kinetic buffer (Catalog #18-1105, ForteBio) was diluted with PBS(Catalog #E607016-0500, BBI Life Sciences)) and were captured on the surface of anti-human Fc (AHC) Octet biosensors (Catalog #18-5060, ForteBio) to reach capture levels between 0.9-1.2 nm. The biosensors having the captured anti-CD200R1 antibodies were then dipped in wells containing 2-fold serial dilutions of CD200R1a proteins to detect association signals, followed by dissociation steps in wells containing 1× kinetic buffer. The sensorgrams were recorded and the reference signals were subtracted before curve fitting using ForteBio Data Analysis 11.0 software. Association rates (kₒₙ) and dissociation rates (koff) were calculated using a simple one-to-one Langmuir binding model. The equilibrium dissociation constant (KD) was calculated as the ratio of koff/kₒₙ.

[7] = target: T3, CD200R1a on PathHunter Jurkat CD200R1a …; test: cell-based or functional assay; remark: listed apart in the source
[8] = target: T1, human CD200R1 isoform a on CHOK1 cells …; test: flow cytometry, CHOK1/hCD200R1a cells (FITC-Mean); table beside the curves; remark: listed apart in the source
Protocol: as §1, §2

[9] = target: T2, Cynomolgus macaques CD200R1 isoform a …; test: flow cytometry, CHOK1/cynoCD200R1a cells (APC-A Mean); table beside the curves
[10] = target: T1, human CD200R1 isoform a on CHOK1 cells …; test: flow cytometry blocking assay: biotin-labelled human CD200 binding to CHOK1/hCD200R1a cells; y axis Inhibition %; remark: listed apart in the source
Protocol: as §3

[11] = target: T1, human CD200R1 isoform a on CHOK1 cells …; test: flow cytometry, CHOK1/hCD200R1a cells (FITC-Mean); table beside the curves, head without unit, x axis Log [Ab] (nM); remark: listed apart in the source
[12] = target: T1, human CD200R1 isoform a on CHOK1 cells …; test: flow cytometry blocking assay: antibody titrated against biotin-labelled human CD200 binding to CHOK1/hCD200R1a cells; head prints EC50 without unit, x axis Log [Ab] (nM), y axis Inhibition %; remark: listed apart in the source
Protocol: as §3

EC50 [2]: 6.82 nM
MFI (MAX) [2]: 52200
B1: PR007974 (antibody, human IgG1, kappa, V domains shown)
VH: QVQLVESGGGVVQPGRSLRLSCAASGFTFSYYGFHWVRQAPGKGLEWLGLIWSDARHKDYADSVKGRFTISRDNSKNTLYLQMNSLRAEDTAVYYCARDRIVGEGFDYWGQGTLVTVSS
VL: DIVMTQSPLSLPVTPGEPASISCRSSQSLLHRSGYNYLDWYLQKPGQSPQLLIYLGSYRASGVPDRFSGSGSGTDFTLKISRVEAEDVGVYYCQQGIQTTYTFGQGTKLEIKR
notes: PTM variant of PR006839 (human IgG1)
MFI(Max) [1]: 18900
Blocking(Max) [3]: 98%
EC50 [4]: 0.277 nM
EC50 [5]: 0.24 nM

binding result (Mouse CD200R1-His): no binding
B2: PR005512 (antibody, human IgG1, kappa, L234A L235A, V domains shown)
VH: QVQLVESGGGVVQPGRSLRLSCVASGFTFSSYGMHWVRQAPGKGLEWVAIIWNDGSNRYYADSVKGRFTISRDNSKNTLYLQMNSLRAEDTAVYYCARDRIVGAGFDYWGQGTLVTVSS
VL: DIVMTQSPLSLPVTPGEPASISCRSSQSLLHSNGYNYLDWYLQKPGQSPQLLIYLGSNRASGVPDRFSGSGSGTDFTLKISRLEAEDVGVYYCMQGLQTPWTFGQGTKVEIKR
notes: also called PR60-012; PRE04512
IC50 of the inhibition of CD200-induced PathHunter Jurkat CD200R1a luminescence (CHOK1/hCD200 cells as CD200 source); head without unit, x axis Log [Ab] (nM) [6]: 2.63 nM

EC50 [9]: 8.74 nM
MFI (MAX) [9]: 51700
B3: PR007444 (antibody, human IgG1, kappa)
heavy: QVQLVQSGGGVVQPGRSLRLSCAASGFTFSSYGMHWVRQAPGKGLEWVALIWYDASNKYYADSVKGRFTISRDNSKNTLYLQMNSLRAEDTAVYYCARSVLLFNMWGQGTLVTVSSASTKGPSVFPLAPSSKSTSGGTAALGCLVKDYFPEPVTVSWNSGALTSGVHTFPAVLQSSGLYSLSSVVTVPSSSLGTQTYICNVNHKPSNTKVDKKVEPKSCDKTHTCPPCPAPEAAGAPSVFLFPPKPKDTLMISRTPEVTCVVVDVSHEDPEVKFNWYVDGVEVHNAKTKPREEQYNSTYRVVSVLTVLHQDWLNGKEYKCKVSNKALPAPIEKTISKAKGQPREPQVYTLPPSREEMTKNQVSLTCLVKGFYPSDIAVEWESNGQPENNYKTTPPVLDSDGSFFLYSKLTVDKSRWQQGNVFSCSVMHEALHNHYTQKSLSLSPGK
light: DIQMTQSPPSLSASVGDRVTITCRASQSISSYLNWFQQKAGKAPKLLISATSNLQSGVPSRFSGSGSGTDFTLTISSLQPEDLATYYCQQTYSSPYTFGQGTKVEIKRTVAAPSVFIFPPSDEQLKSGTASVVCLLNNFYPREAKVQWKVDNALQSGNSQESVTEQDSKDSTYSLSSTLTLSKADYEKHKVYACEVTHQGLSSPVTKSFNRGEC
notes: PTM variant of PR006895 (human IgG1)
IC50 of the inhibition of CD200-induced PathHunter Jurkat CD200R1a luminescence (CHOK1/hCD200 cells as CD200 source) [7]: 0.755 nM
MFI(Max) [8]: 10800
Blocking(Max) [10]: 86.6%
EC50 [11]: 0.15 nM
EC50 [12]: 0.0926 nM
